Values belong to the binder of their own block, whether it stands above or below them.
How the values were obtained:
[1] = target: T1, human CD137 (recombinant antigen of the ELISA of Example 2 and the SPR of Example 3; construct not stated) (human, UniProt Q07011 24-186, limits assumed); experiment: SPR, antibody captured on anti-human Fc surface, Test 2
T1 construct: also called huCD137
From the text: (§1) For affinity determination, antibodies were captured by anti-human Fe surface, and used in the affinity—assay based on surface plasmon resonance (SPR) technology.

[2] = target: T2, human CD137 over-expressed on HuT78 cells (HuT78/CD137) (human, UniProt Q07011 24-255); experiment: flow cytometry on live HuT78/CD137 cells
T2 construct: also called Hut78/huCD137; native CD137
Protocol: To evaluate the binding activity of anti-CD137 antibody to bind native CD137 on live cells, HuT78 cells were engineered to over-express human CD137. Live HuT78/CD137 cells were seeded in a 96-well plate, and were incubated with a series of dilutions of anti-CD137 antibody. Goat anti-Human IgG was used as secondary antibody to detect antibody binding to the cell surface. EC₅₀ values for dose-dependent binding to human native CD137 were determined by fitting the dose-response data to the four-parameter logistic model with GraphPad Prism™. The humanized VHHs retained sub-nanomolar binding affinity to native CD137.

[3] = target: T1, human CD137 (recombinant antigen of the …); experiment: SPR, antibody captured on anti-human Fc surface, Test 1
From the text: as §1

[4] = target: T1, human CD137 (recombinant antigen of the …); experiment: SPR
[5] = target: T1, human CD137 (recombinant antigen of the …); experiment: SPR; remark: listed apart in the source

T2 sequence (Q07011 24-255 limits assumed): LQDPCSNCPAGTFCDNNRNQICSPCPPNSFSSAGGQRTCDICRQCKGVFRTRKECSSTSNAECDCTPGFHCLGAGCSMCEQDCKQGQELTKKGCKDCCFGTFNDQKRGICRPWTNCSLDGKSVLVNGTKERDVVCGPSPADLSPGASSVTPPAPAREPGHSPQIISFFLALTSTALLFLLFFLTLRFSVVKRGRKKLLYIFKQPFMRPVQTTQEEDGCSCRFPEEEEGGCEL

B1: BGA-9612 (chimeric Fc-VHH, as compared with the humanized VHHs in Examples 3-4) (VHH)
chain: EPKSSDKTHTCPPCPAPPAAGPSVFLFPPKPKDTLMISRTPEVTCVVVDVSHEDPEVKFNWYVDGVEVHNAKTKPREEQYNSTYRVVSVLTVLHQDWLNGKEYKCKVSNKALAAPIEKTISKAKGQPREPQVYTLPPSREEMTKNQVSLTCLVKGFYPSDIAVEWESNGQPENNYKTTPPVLDSDGSFFLYSKLTVDKSRWQQGNVFSCSVMHEALHNHYTQKSLSLSPGKGGGGSQVQLVESGGGTVQPGDSLRLSCAASGRTFDNYAVGWFRQAPGKERQYVGTYWSGYAHYGDFENNRFTISRDNAKNTVYLQMDNLKPEDTAVYYCAISLKYPMATVTPDYQGQGTQVTVSS
- Kd [1]: 15.2 nM
- koff [1]: 0.000754 s⁻¹
- kon [1]: 49500 M⁻¹ s⁻¹
- EC50 [2]: 0.85 nM
- Kd [3]: 20.3 nM
- koff [3]: 0.000419 s⁻¹
- kon [3]: 20700 M⁻¹ s⁻¹
- Kd [4]: 20.3 nM
- koff [4]: 0.000419 s⁻¹
- kon [4]: 20700 M⁻¹ s⁻¹

B4: BGA-6582-V78L (VHH)
chain: EPKSSDKTHTCPPCPAPPAAGPSVFLFPPKPKDTLMISRTPEVTCVVVDVSHEDPEVKFNWYVDGVEVHNAKTKPREEQYNSTYRVVSVLTVLHQDWLNGKEYKCKVSNKALAAPIEKTISKAKGQPREPQVYTLPPSREEMTKNQVSLTCLVKGFYPSDIAVEWESNGQPENNYKTTPPVLDSDGSFFLYSKLTVDKSRWQQGNVFSCSVMHEALHNHYTQKSLSLSPGKGGGGSEVQLLESGGGLVQPGGSLRLSCAASGRTFDNYAVGWFRQAPGKERQYVGTYWSGYAHYGDFENNRFTISRDNSKNTLYLQMNSLRAEDTAVYYCAISLKYPMATVTPDYQGQGTLVTVSS
- Kd [5]: 13.6 nM
- koff [5]: 0.000593 s⁻¹
- kon [5]: 43500 M⁻¹ s⁻¹

B7: BGA-6582-R45L (VHH)
chain: EPKSSDKTHTCPPCPAPPAAGPSVFLFPPKPKDTLMISRTPEVTCVVVDVSHEDPEVKFNWYVDGVEVHNAKTKPREEQYNSTYRVVSVLTVLHQDWLNGKEYKCKVSNKALAAPIEKTISKAKGQPREPQVYTLPPSREEMTKNQVSLTCLVKGFYPSDIAVEWESNGQPENNYKTTPPVLDSDGSFFLYSKLTVDKSRWQQGNVFSCSVMHEALHNHYTQKSLSLSPGKGGGGSEVQLLESGGGLVQPGGSLRLSCAASGRTFDNYAVGWFRQAPGKELQYVGTYWSGYAHYGDFENNRFTISRDNSKNTVYLQMNSLRAEDTAVYYCAISLKYPMATVTPDYQGQGTLVTVSS
- Kd [5]: 14.8 nM
- koff [5]: 0.000413 s⁻¹
- kon [5]: 27800 M⁻¹ s⁻¹

B9: BGA-3544 (humanized VHH, Fc-VHH format) (VHH)
chain: EPKSSDKTHTCPPCPAPPAAGPSVFLFPPKPKDTLMISRTPEVTCVVVDVSHEDPEVKFNWYVDGVEVHNAKTKPREEQYNSTYRVVSVLTVLHQDWLNGKEYKCKVSNKALAAPIEKTISKAKGQPREPQVYTLPPSREEMTKNQVSLTCLVKGFYPSDIAVEWESNGQPENNYKTTPPVLDSDGSFFLYSKLTVDKSRWQQGNVFSCSVMHEALHNHYTQKSLSLSPGKGGGGSEVQLVESGGGLVQPGGSLRLSCAASGRTFDNYAVGWFRQAPGKEREYVGTYWSGYAHYGDFEKGRFTISRDNSKNTVYLQMNNLRPEDTAVYYCAISLKYPMATVTPDYQGQGTQVTVSS
- Kd [1]: 17.6 nM
- koff [1]: 0.000999 s⁻¹
- kon [1]: 56900 M⁻¹ s⁻¹
- EC50 [2]: 0.85 nM

B10: BGA-3726 (BGA-6582-Q46E) (VHH)
chain: EPKSSDKTHTCPPCPAPPAAGPSVFLFPPKPKDTLMISRTPEVTCVVVDVSHEDPEVKFNWYVDGVEVHNAKTKPREEQYNSTYRVVSVLTVLHQDWLNGKEYKCKVSNKALAAPIEKTISKAKGQPREPQVYTLPPSREEMTKNQVSLTCLVKGFYPSDIAVEWESNGQPENNYKTTPPVLDSDGSFFLYSKLTVDKSRWQQGNVFSCSVMHEALHNHYTQKSLSLSPGKGGGGSEVQLLESGGGLVQPGGSLRLSCAASGRTFDNYAVGWFRQAPGKEREYVGTYWSGYAHYGDFENNRFTISRDNSKNTVYLQMNSLRAEDTAVYYCAISLKYPMATVTPDYQGQGTLVTVSS
- Kd [5]: 14.3 nM
- koff [5]: 0.000432 s⁻¹
- kon [5]: 30200 M⁻¹ s⁻¹

B11: BGA-6582 (humanized VHH from BGA-9612, Fc-VHH format) (VHH)
chain: EPKSSDKTHTCPPCPAPPAAGPSVFLFPPKPKDTLMISRTPEVTCVVVDVSHEDPEVKFNWYVDGVEVHNAKTKPREEQYNSTYRVVSVLTVLHQDWLNGKEYKCKVSNKALAAPIEKTISKAKGQPREPQVYTLPPSREEMTKNQVSLTCLVKGFYPSDIAVEWESNGQPENNYKTTPPVLDSDGSFFLYSKLTVDKSRWQQGNVFSCSVMHEALHNHYTQKSLSLSPGKGGGGSEVQLLESGGGLVQPGGSLRLSCAASGRTFDNYAVGWFRQAPGKERQYVGTYWSGYAHYGDFENNRFTISRDNSKNTVYLQMNSLRAEDTAVYYCAISLKYPMATVTPDYQGQGTLVTVSS
- Kd [5]: 13.6 nM
- koff [5]: 0.000593 s⁻¹
- kon [5]: 43500 M⁻¹ s⁻¹
- Kd [3]: 27.7 nM
- koff [3]: 0.000588 s⁻¹
- kon [3]: 21200 M⁻¹ s⁻¹
- Kd [4]: 27.7 nM
- koff [4]: 0.000588 s⁻¹
- kon [4]: 21200 M⁻¹ s⁻¹

B12: BGA-6582-E44G (VHH)
chain: EPKSSDKTHTCPPCPAPPAAGPSVFLFPPKPKDTLMISRTPEVTCVVVDVSHEDPEVKFNWYVDGVEVHNAKTKPREEQYNSTYRVVSVLTVLHQDWLNGKEYKCKVSNKALAAPIEKTISKAKGQPREPQVYTLPPSREEMTKNQVSLTCLVKGFYPSDIAVEWESNGQPENNYKTTPPVLDSDGSFFLYSKLTVDKSRWQQGNVFSCSVMHEALHNHYTQKSLSLSPGKGGGGSEVQLLESGGGLVQPGGSLRLSCAASGRTFDNYAVGWFRQAPGKGRQYVGTYWSGYAHYGDFENNRFTISRDNSKNTVYLQMNSLRAEDTAVYYCAISLKYPMATVTPDYQGQGTLVTVSS
- Kd [5]: 9.16 nM
- koff [5]: 0.000242 s⁻¹
- kon [5]: 26400 M⁻¹ s⁻¹

Further lines, results first:

- Kd [1]: 11.7 nM
- koff [1]: 0.000719 s⁻¹
- kon [1]: 61600 M⁻¹ s⁻¹
- EC50 [2]: 0.88 nM
B2: BGA-7031 (humanized VHH, Fc-VHH format) (VHH)
chain: EPKSSDKTHTCPPCPAPPAAGPSVFLFPPKPKDTLMISRTPEVTCVVVDVSHEDPEVKFNWYVDGVEVHNAKTKPREEQYNSTYRVVSVLTVLHQDWLNGKEYKCKVSNKALAAPIEKTISKAKGQPREPQVYTLPPSREEMTKNQVSLTCLVKGFYPSDIAVEWESNGQPENNYKTTPPVLDSDGSFFLYSKLTVDKSRWQQGNVFSCSVMHEALHNHYTQKSLSLSPGKGGGGSEVQLVESGGGLVQPGGSLRLSCAASGRTFDNYAVGWFRQAPGKEREYVGTYWSGYAHYGDFENNRFTISRDNSKNTVYLQMNNLRPEDTAVYYCAISLKYPMATVTPDYQGQGTQVTVSS

- binding result [5]: no binding
B3: BGA-6582-Y47W (VHH)
chain: EPKSSDKTHTCPPCPAPPAAGPSVFLFPPKPKDTLMISRTPEVTCVVVDVSHEDPEVKFNWYVDGVEVHNAKTKPREEQYNSTYRVVSVLTVLHQDWLNGKEYKCKVSNKALAAPIEKTISKAKGQPREPQVYTLPPSREEMTKNQVSLTCLVKGFYPSDIAVEWESNGQPENNYKTTPPVLDSDGSFFLYSKLTVDKSRWQQGNVFSCSVMHEALHNHYTQKSLSLSPGKGGGGSEVQLLESGGGLVQPGGSLRLSCAASGRTFDNYAVGWFRQAPGKERQWVGTYWSGYAHYGDFENNRFTISRDNSKNTVYLQMNSLRAEDTAVYYCAISLKYPMATVTPDYQGQGTLVTVSS

- binding result [5]: no binding
B5: BGA-6582-F37V (VHH)
chain: EPKSSDKTHTCPPCPAPPAAGPSVFLFPPKPKDTLMISRTPEVTCVVVDVSHEDPEVKFNWYVDGVEVHNAKTKPREEQYNSTYRVVSVLTVLHQDWLNGKEYKCKVSNKALAAPIEKTISKAKGQPREPQVYTLPPSREEMTKNQVSLTCLVKGFYPSDIAVEWESNGQPENNYKTTPPVLDSDGSFFLYSKLTVDKSRWQQGNVFSCSVMHEALHNHYTQKSLSLSPGKGGGGSEVQLLESGGGLVQPGGSLRLSCAASGRTFDNYAVGWVRQAPGKERQYVGTYWSGYAHYGDFENNRFTISRDNSKNTVYLQMNSLRAEDTAVYYCAISLKYPMATVTPDYQGQGTLVTVSS

- binding result [5]: no binding
B6: BGA-6582-G49S (VHH)
chain: EPKSSDKTHTCPPCPAPPAAGPSVFLFPPKPKDTLMISRTPEVTCVVVDVSHEDPEVKFNWYVDGVEVHNAKTKPREEQYNSTYRVVSVLTVLHQDWLNGKEYKCKVSNKALAAPIEKTISKAKGQPREPQVYTLPPSREEMTKNQVSLTCLVKGFYPSDIAVEWESNGQPENNYKTTPPVLDSDGSFFLYSKLTVDKSRWQQGNVFSCSVMHEALHNHYTQKSLSLSPGKGGGGSEVQLLESGGGLVQPGGSLRLSCAASGRTFDNYAVGWFRQAPGKERQYVSTYWSGYAHYGDFENNRFTISRDNSKNTVYLQMNSLRAEDTAVYYCAISLKYPMATVTPDYQGQGTLVTVSS

- binding result [5]: no binding
B8: BGA-6582-I94K (VHH)
chain: EPKSSDKTHTCPPCPAPPAAGPSVFLFPPKPKDTLMISRTPEVTCVVVDVSHEDPEVKFNWYVDGVEVHNAKTKPREEQYNSTYRVVSVLTVLHQDWLNGKEYKCKVSNKALAAPIEKTISKAKGQPREPQVYTLPPSREEMTKNQVSLTCLVKGFYPSDIAVEWESNGQPENNYKTTPPVLDSDGSFFLYSKLTVDKSRWQQGNVFSCSVMHEALHNHYTQKSLSLSPGKGGGGSEVQLLESGGGLVQPGGSLRLSCAASGRTFDNYAVGWFRQAPGKERQYVGTYWSGYAHYGDFENNRFTISRDNSKNTVYLQMNSLRAEDTAVYYCAKSLKYPMATVTPDYQGQGTLVTVSS

Source: patent publication US20250154279A1 (BEIGENE, published 2025)
